From the supplement of paper PMC5998384 come the findings set out here.

The test system of series [1] is HeLa Kyoto. The series can be described thus: solubility in G1/S (NP-40 vs SDS abundance) (log2 ratio); higher = more soluble. Particulars: cell cycle stage: G1/S.
The test system of series [2] is HeLa Kyoto. The series can be described thus: melting temperature (median over replicates), in situ; higher = more thermally stable.
In series [3] the test system is HeLa Kyoto. Description: solubility change mitosis vs G1/S (difference of NP-40 vs SDS log2 ratios) (log2 ratio difference); higher = more soluble in mitosis.
Series [4] concerns HeLa Kyoto. The series can be described thus: thermal stability score vs G1/S (z-score of summed log2 fold changes over temperatures); higher = more thermally stable than in G1/S.
[5] abbreviates: cell cycle stage: early G1 (4.5 h after nocodazole release).
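Throughout, for melting temperature (median over replicates), in situ: HeLa Kyoto cells synchronized by double thymidine or nocodazole block, proteins quantified by TMT10plex mass spectrometry, three independent biological replicates.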
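Throughout, for solubility change mitosis vs G1/S (difference of NP-40 vs SDS log2 ratios): synchronized HeLa Kyoto cells (double thymidine block for G1/S, nocodazole release for mitosis), protein amounts in NP-40 versus SDS lysates quantified by mass spectrometry, three biological replicates.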
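Throughout, for solubility in G1/S (NP-40 vs SDS abundance): HeLa Kyoto cells arrested at G1/S by double thymidine block, proteins quantified by TMT10plex mass spectrometry in mild NP-40 versus SDS extracts, three biological replicates.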
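Throughout, for thermal stability score vs G1/S (z-score of summed log2 fold changes over temperatures): synchronized HeLa Kyoto cells, proteins quantified by TMT10plex mass spectrometry, three biological replicates, mitosis taken 0.5 h after nocodazole release, G1/S directly after double thymidine block.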

As for “MASACGAPGPGGALGSQAPSWYHRDLSRAAAEELLARAGRDGSFLVRDSESVAGAFALCVLYQKHVHTYRILPDGEDFLAVQTSQGVPVRRFQTLGELIGLYAQPNQGLVCALLLPVEGEREPDPPDDRDASDGEDEKPPLPPRSGSTSISAPTGPSSPLPAPETPTAPAAESAPNGLSTVSHDYLKGSYGLDLEAVRGGASHLPHLTRTLATSCRRLHSEVDKVLSGLEILSKVFDQQSSPMVTRLLQQQNLPQTGEQELESLVLKLSVLKDFLSGIQKKALKALQDMSSTAPPAPQPSTRKAKTIPVQAFEVKLDVTLGDLTKIGKSQKFTLSVDVEGGRLVLLRRQRDSQEDWTTFTHDRIRQLIKSQRVQNKLGVVFEKEKDRTQRKDFIFVSARKREAFCQLLQLMKNKHSKQDEPDMISVFIGTWNMGSVPPPKNVTSWFTSKGLGKTLDEVTVTIPHDIYVFGTQENSVGDREWLDLLRGGLKELTDLDYRPIAMQSLWNIKVAVLVKPEHENRISHVSTSSVKTGIANTLGNKGAVGVSFMFNGTSFGFVNCHLTSGNEKTARRNQNYLDILRLLSLGDRQLNAFDISLRFTHLFWFGDLNYRLDMDIQEILNYISRKEFEPLLRVDQLNLEREKHKVFLRFSEEEISFPPTYRYERGSRDTYAWHKQKPTGVRTNVPSWCDRILWKSYPETHIICNSYGCTDDIVTSDHSPVFGTFEVGVTSQFISKKGLSKTSDQAYIEFESIEAIVKTASRTKFFIEFYSTCLEEYKKSFENDAQSSDNINFLKVQWSSRQLPTLKPILADIEYLQDQHLLLTVKSMDGYESYGECVVALKSMIGSTAQQFLTFLSHRGEETGNIRGSMKVRVPTERLGTRERLYEWISIDKDEAGAKSKAPSVSRGSQEPRSGSRKPAFTEASCPLSRLFEEPEKPPPTGRPPAPPRAAPREEPLTPRLKPEGAPEPEGVAAPPPKNSFNNPAYYVLEGVPHQLLPPEPPSPARAPVPSATKNKVAITVPAPQLGHHRHPRVGEGSSSDEESGGTLPPPDFPPPPLPDSAIFLPPSLDPLPGPVVRGRGGAEARGPPPPKAHPRPPLPPGPSPASTFLGEVASGDDRSCSVLQMAKTLSEVDYAPAGPARSALLPGPLELQPPRGLPSDYGRPLSFPPPRIRESIQEDLAEEAPCLQGGRASGLGEAGMSAWLRAIGLERYEEGLVHNGWDDLEFLSDITEEDLEEAGVQDPAHKRLLLDTLQLSK [INPPL1]”, the “solubility in G1/S (log2)” value in series [1] stood at 0.0138. Further, the melting temperature in series [2] (cell cycle stage: G1/S) and in series [2] (cell cycle stage: mitosis) was 48.6 °C throughout. Besides, the “solubility change mitosis (log2)” value in series [3] was -0.119. Also, the thermal stability score in series [4] (setting [5]) was 0.612; in series [4] (cell cycle stage: mitosis) it was 2.56.

As for “MGKSRTKRFKRPQFSPTGDCQAEAAAAANGTGGEEDDGPAAELLEKLQHPSAEVRECACAGLARLVQQRPALPGLARRDAVRRLGPLLLDPSLAVRETAAGALRNLSACGGFEVCDDMVTKDIMTPLVALLKECSAGLDSNEMSLQEKKDQNRNSIENIANETVNVLWNICECSSRAVSIFNKEGCLEIVLKYLSRFPTNVDLAISVAYCLQTVTEDNPELLKSFSATALNMLESALLSPVSSMESLLLKTLVAGTIWNLKDIIPCKSQAEIINALLKILSEVLGMDAGEMVIQMKEAETQRLKTAAEAEEILENTNGDDLIEDDEMEGISHKRRVRRKTFVSDLLPPTDKELRETIALLTAQQTALEIIVNMCCNEDPSDDEWEELSSSDESDAFMENSFSECGGQLFSPLCLSHEVHTALTNYLIPKKIFEKTAFPNSIAVDLCSRNPTWKPLIRKMNTIQCRALFCLQSLVSLLDVEHLGGAAALQTLAQHLSQLLFSQPDFAKHVDFLEAISSALRALLQTMASKNISQCMTPDQLMTLCKAGIHSSNVGVRVNVVSILGITGSVLAKEDGTLETLKNIGCFLLEVTTKDPSLVVAGEALDALFDVFADGKEAERASIQIKLLSALKEFQPVFKMKIRKEGRGNYSTDQLCVLDNVKMNLRRFIAYQETVEKRLTS [HEATR3]”, the “solubility in G1/S (log2)” value in series [1] was 0.0745. The melting temperature in series [2] (cell cycle stage: G1/S) worked out at 48.7 °C; in series [2] (cell cycle stage: mitosis) it was 48.8 °C. Also, the “solubility change mitosis (log2)” value in series [3] was -0.138. Besides, the thermal stability score in series [4] (setting [5]) is 1.72; in series [4] (cell cycle stage: mitosis), 3.45.

Take “MAGPGPGAVLESPRQLLGRVRFLAEAARSLRAGRPLPAALAFVPREVLYKLYKDPAGPSRVLLPVWEAEGLGLRVGAAGPAPGTGSGPLRAARDSIELRRGACVRTTGEELCNGHGLWVKLTKEQLAEHLGDCGLQEGWLLVCRPAEGGARLVPIDTPNHLQRQQQLFGVDYRPVLRWEQVVDLTYSHRLGSRPQPAEAYAEAVQRLLYVPPTWTYECDEDLIHFLYDHLGKEDENLGSVKQYVESIDVSSYTEEFNVSCLTDSNADTYWESDGSQCQHWVRLTMKKGTIVKKLLLTVDTTDDNFMPKRVVVYGGEGDNLKKLSDVSIDETLIGDVCVLEDMTVHLPIIEIRIVECRDDGIDVRLRGVKIKSSRQRELGLNADLFQPTSLVRYPRLEGTDPEVLYRRAVLLQRFIKILDSVLHHLVPAWDHTLGTFSEIKQVKQFLLLSRQRPGLVAQCLRDSESSKPSFMPRLYINRRLAMEHRACPSRDPACKNAVFTQVYEGLKPSDKYEKPLDYRWPMRYDQWWECKFIAEGIIDQGGGFRDSLADMSEELCPSSADTPVPLPFFVRTANQGNGTGEARDMYVPNPSCRDFAKYEWIGQLMGAALRGKEFLVLALPGFVWKQLSGEEVSWSKDFPAVDSVLVKLLEVMEGMDKETFEFKFGKELTFTTVLSDQQVVELIPGGAGIVVGYGDRSRFIQLVQKARLEESKEQVAAMQAGLLKVVPQAVLDLLTWQELEKKVCGDPEVTVDALRKLTRFEDFEPSDSRVQYFWEALNNFTNEDRSRFLRFVTGRSRLPARIYIYPDKLGYETTDALPESSTCSSTLFLPHYASAKVCEEKLRYAAYNCVAIDTDMSPWEE [HECTD3]”: the “solubility in G1/S (log2)” value in series [1] is -0.0837. Moreover, the results for the melting temperature in series [2] (cell cycle stage: G1/S) and in series [2] (cell cycle stage: mitosis) were 51.8 °C and 51 °C, respectively. Also, in series [3], the “solubility change mitosis (log2)” value was -0.123. Further, the thermal stability score was 0.000139 in series [4] (setting [5]) and -0.669 in series [4] (cell cycle stage: mitosis).

For “MAAPLELSCWGGGWGLPSVHSESLVVMAYAKFSGAPLKVNVIDNTWRGSRGDVPILTTEDDMVSQPAKILNFLRKQKYNADYELSAKQGADTLAYIALLEEKLLPAVLHTFWVESDNYFTVTKPWFASQIPFPLSLILPGRMSKGALNRILLTRGQPPLYHLREVEAQIYRDAKECLNLLSNRLGTSQFFFGDTPSTLDAYVFGFLAPLYKVRFPKVQLQEHLKQLSNLCRFCDDILSSYFRLSLGGISPAGQETVDANLQKLTQLVNKESNLIEKMDDNLRQSPQLPPRKLPTLKLTPAEEENNSFQRLSP [MTX3]”, the “solubility in G1/S (log2)” value in series [1] was determined as 0.0969. Besides, the melting temperature in series [2] (cell cycle stage: G1/S) was determined as 51.4 °C; in series [2] (cell cycle stage: mitosis) it was 53 °C. Also, the “solubility change mitosis (log2)” value in series [3] turned out to be 0.0458. For the same sequence, the thermal stability score is -1.88 in series [4] (setting [5]) and -1.18 in series [4] (cell cycle stage: mitosis).

On to “MGKKSRVKTQKSGTGATATVSPKEILNLTSELLQKCSSPAPGPGKEWEEYVQIRTLVEKIRKKQKGLSVTFDGKREDYFPDLMKWASENGASVEGFEMVNFKEEGFGLRATRDIKAEELFLWVPRKLLMTVESAKNSVLGPLYSQDRILQAMGNIALAFHLLCERASPNSFWQPYIQTLPSEYDTPLYFEEDEVRYLQSTQAIHDVFSQYKNTARQYAYFYKVIQTHPHANKLPLKDSFTYEDYRWAVSSVMTRQNQIPTEDGSRVTLALIPLWDMCNHTNGLITTGYNLEDDRCECVALQDFRAGEQIYIFYGTRSNAEFVIHSGFFFDNNSHDRVKIKLGVSKSDRLYAMKAEVLARAGIPTSSVFALHFTEPPISAQLLAFLRVFCMTEEELKEHLLGDSAIDRIFTLGNSEFPVSWDNEVKLWTFLEDRASLLLKTYKTTIEEDKSVLKNHDLSVRAKMAIKLRLGEKEILEKAVKSAAVNREYYRQQMEEKAPLPKYEESNLGLLESSVGDSRLPLVLRNLEEEAGVQDALNIREAISKAKATENGLVNGENSIPNGTRSENESLNQESKRAVEDAKGSSSDSTAGVKE [SETD3]”, for which, in series [1], the “solubility in G1/S (log2)” value was -0.0122. Further, the figures for the melting temperature in series [2] (cell cycle stage: G1/S) and in series [2] (cell cycle stage: mitosis) were 52.8 °C and 53.5 °C, respectively. Also, the “solubility change mitosis (log2)” value in series [3] is -0.0646. Besides, the thermal stability score in series [4] (setting [5]) worked out at 1.13; in series [4] (cell cycle stage: mitosis), 1.44.

For the sequence “MFQFHAGSWESWCCCCLIPADRPWDRGQHWQLEMADTRSVHETRFEAAVKVIQSLPKNGSFQPTNEMMLKFYSFYKQATEGPCKLSRPGFWDPIGRYKWDAWSSLGDMTKEEAMIAYVEEMKKIIETMPMTEKVEELLRVIGPFYEIVEDKKSGRSSDITSVRLEKISKCLEDLGNVLTSTPNAKTVNGKAESSDSGAESEEEEAQEEVKGAEQSDNDKKMMKKSADHKNLEVIVTNGYDKDGFVQDIQNDIHASSSLNGRSTEEVKPIDENLGQTGKSAVCIHQDINDDHVEDVTGIQHLTSDSDSEVYCDSMEQFGQEESLDSFTSNNGPFQYYLGGHSSQPMENSGFREDIQVPPGNGNIGNMQVVAVEGKGEVKHGGEDGRNNSGAPHREKRGGETDEFSNVRRGRGHRMQHLSEGTKGRQVGSGGDGERWGSDRGSRGSLNEQIALVLMRLQEDMQNVLQRLQKLETLTALQAKSSTSTLQTAPQPTSQRPSWWPFEMSPGVLTFAIIWPFIAQWLVYLYYQRRRRKLN [ACBD5]”, the “solubility in G1/S (log2)” value in series [1] amounted to 0.0763. Besides, the melting temperature in series [2] (cell cycle stage: G1/S) was 47.3 °C; in series [2] (cell cycle stage: mitosis), 49.4 °C. In addition, the “solubility change mitosis (log2)” value in series [3] is -0.129. Further, the thermal stability score was 2.16 in series [4] (setting [5]) and 3.53 in series [4] (cell cycle stage: mitosis).
